Reference: the RNAGym collection of RNA variant scans (doi:10.1093/molbev/msab373)

B1: Azoarcus group I ribozyme (parent)
chain: GUGCCUUGCGCCGGGAAACCACGCAAGGGAUGGUGUCAAAUUCGGCGAAACCUAAGCGCCCGCCCGGGCGUAUGGCAACGCCGAGCCAAGCUUCGGCGCCUGCGCCGAUGAAGGUGUAGAGACUAGACGGCACCCACCUAAGGCAAACGCUAUGGUGAAGGCAUAGUCCAGGGAGUGGCGAAAGUCACACAAACCGG

Variants of: B1
Experiment: reverse-splicing fitness (ratio to wild type); higher = more active; in vitro selection; Mg2+ level not given
Summary of the method: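 An in vitro group I ribozyme library with randomized positions was T7-transcribed and gel-purified. In triplicate, 10 pmol RNA in EPPS pH 7.5 was reacted with 50 pmoles of a 30-nt RNA substrate for 1 h at 37 °C across several added MgCl2 levels (1–48 mM), then stopped with EDTA. Products were reverse transcribed from a substrate-complementary primer, PCR-amplified and sequenced (HiSeq 4000). Fitness is a variant's read proportion after selection over that before, normalised to wild type.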
With C82A A111C A120G A145G C150U C169G the reverse-splicing fitness was 0.0106. With C82A A111C A120G A145G C150U C169U the reverse-splicing fitness was 0.00986. Work on C82A A111C A120G A145C C150G C169G yielded a reverse-splicing fitness of 0.00683. In the case of C82A A111C A120G A145C C150G C169A, the reverse-splicing fitness is reported as 0.00757. C82A A111C A120G A145C C150G C169U showed a reverse-splicing fitness of 0.00668. Variant C82A A111C A120G A145C C150A C169A U176A has a reverse-splicing fitness of 0.01. C82A A111C A120G A145C C150A C169A U176C showed a reverse-splicing fitness of 0.00778. With C82A A111C A120G A145C C150A C169A U176G the reverse-splicing fitness was 0.00603. For C82A A111C A120G A145U C150A C169A, the reverse-splicing fitness was 0.00893. Variant C82A A111C A120G A145U C150A C169G has a reverse-splicing fitness of 0.00777. In the case of C82A A111C A120G A145U C150A C169U, the reverse-splicing fitness is reported as 0.00736. With C82A A111C A120G A145U C150U C169A the reverse-splicing fitness was 0.00903. Work on C82A A111C A120G A145U C150U C169U yielded a reverse-splicing fitness of 0.00924. Work on C82A A111C A120G A145U C150U C169G yielded a reverse-splicing fitness of 0.00909. C82A A111C A120G C150U C169A U176C gave a reverse-splicing fitness of 0.0139. Variant C82A A111C A120G C150U C169A U176G has a reverse-splicing fitness of 0.00621. Variant C82A A111C A120G C150U C169A U176A has a reverse-splicing fitness of 0.013. In the case of C82A A111C A120C C150A C169G U176A, the reverse-splicing fitness is reported as 0.0168. C82A A111C A120C C150A C169G U176G gave a reverse-splicing fitness of 0.00878. With C82A A111C A120C C150A C169G U176C the reverse-splicing fitness was 0.0202. C82A A111C A120G A145C C150U C169U U176C gave a reverse-splicing fitness of 0.00813. In the case of C82A A111C A120G A145C C150U C169U U176A, the reverse-splicing fitness is reported as 0.0143. For C82A A111C A120G A145C C150U C169U U176G, the reverse-splicing fitness was 0.00482. C82A A111C A120G A145G C150U C169A U176C showed a reverse-splicing fitness of 0.0149. Variant C82A A111C A120G A145G C150U C169A U176G has a reverse-splicing fitness of 0.00613. In the case of C82A A111C A120G A145G C150U C169A U176A, the reverse-splicing fitness is reported as 0.016. Variant C82A A111C A120G A145G C169A has a reverse-splicing fitness of 0.0107. Work on C82A A111C A120G A145G C169G yielded a reverse-splicing fitness of 0.00963. Variant C82A A111C A120G A145G C169U has a reverse-splicing fitness of 0.00908. C82A A111C A120G A145U C169U U176C showed a reverse-splicing fitness of 0.0118. Work on C82A A111C A120G A145U C169U U176A yielded a reverse-splicing fitness of 0.0132. C82A A111C A120G A145U C169U U176G showed a reverse-splicing fitness of 0.00449. C82A A111C A120G A145G C150G showed a reverse-splicing fitness of 0.00731. In the case of C82A A111C A120G A145G C150U, the reverse-splicing fitness is reported as 0.0128. With C82A A111C A120G A145G C150A the reverse-splicing fitness was 0.00888. Variant C82A A111C A120G C150A U176G has a reverse-splicing fitness of 0.00789. With C82A A111C A120G C150A U176C the reverse-splicing fitness was 0.0233. Work on C82A A111C A120G C150A U176A yielded a reverse-splicing fitness of 0.0133. C82A A111C A120C C169G U176C gave a reverse-splicing fitness of 0.0233. With C82A A111C A120C C169G U176G the reverse-splicing fitness was 0.00756. C82A A111C A120C C169G U176A gave a reverse-splicing fitness of 0.0174. In the case of C82A A111C A120G A145G C169G U176C, the reverse-splicing fitness is reported as 0.0266. C82A A111C A120G A145G C169G U176A gave a reverse-splicing fitness of 0.0211. With C82A A111C A120G A145G C169G U176G the reverse-splicing fitness was 0.00491. In the case of C82A A111C A120C C150U C169U U176C, the reverse-splicing fitness is reported as 0.0139. For C82A A111C A120C C150U C169U U176G, the reverse-splicing fitness was 0.0075. With C82A A111C A120C C150U C169U U176A the reverse-splicing fitness was 0.0177. Variant C82A A111C A120G A145G C150A C169U has a reverse-splicing fitness of 0.00923. In the case of C82A A111C A120G A145G C150A C169G, the reverse-splicing fitness is reported as 0.00887. Work on C82A A111C A120G A145G C150A C169A yielded a reverse-splicing fitness of 0.0099. C82A A111C A120G A145U C150U gave a reverse-splicing fitness of 0.0124. C82A A111C A120G A145U C150A gave a reverse-splicing fitness of 0.00771. Work on C82A A111C A120G A145U C150G yielded a reverse-splicing fitness of 0.00701. C82A A111C A120G A145C C150G U176G showed a reverse-splicing fitness of 0.00311. Variant C82A A111C A120G A145C C150G U176C has a reverse-splicing fitness of 0.0141. In the case of C82A A111C A120G A145C C150G U176A, the reverse-splicing fitness is reported as 0.00683. For C82A A111C A120G A145U C169A U176G, the reverse-splicing fitness was 0.00466. In the case of C82A A111C A120G A145U C169A U176A, the reverse-splicing fitness is reported as 0.00852. Work on C82A A111C A120G A145U C169A U176C yielded a reverse-splicing fitness of 0.0104. Variant C82A A111C A120G has a reverse-splicing fitness of 0.0149. In the case of C82A A111C A120G A145C C150G C169U U176A, the reverse-splicing fitness is reported as 0.0089. For C82A A111C A120G A145C C150G C169U U176G, the reverse-splicing fitness was 0.00551. Work on C82A A111C A120G A145C C150G C169U U176C yielded a reverse-splicing fitness of 0.0101. For C82A A111C A120G A145U C150G U176C, the reverse-splicing fitness was 0.0147. Work on C82A A111C A120G A145U C150G U176A yielded a reverse-splicing fitness of 0.0064. Variant C82A A111C A120G A145U C150G U176G has a reverse-splicing fitness of 0.0034. C82A A111C A120G A145U C169A gave a reverse-splicing fitness of 0.00893. With C82A A111C A120G A145U C169U the reverse-splicing fitness was 0.00891. C82A A111C A120G A145U C169G gave a reverse-splicing fitness of 0.00868. With C82A A111C A120G A145G U176G the reverse-splicing fitness was 0.00581. For C82A A111C A120G A145G U176C, the reverse-splicing fitness was 0.0226. For C82A A111C A120G A145G U176A, the reverse-splicing fitness was 0.0153. C82A A111C A120G A145U C169G U176C gave a reverse-splicing fitness of 0.012. C82A A111C A120G A145U C169G U176A showed a reverse-splicing fitness of 0.0102. In the case of C82A A111C A120G A145U C169G U176G, the reverse-splicing fitness is reported as 0.00481. Work on C82A A111C A120G A145G C150G C169A U176G yielded a reverse-splicing fitness of 0.00771. Work on C82A A111C A120G A145G C150G C169A U176A yielded a reverse-splicing fitness of 0.0133. C82A A111C A120G A145G C150G C169A U176C showed a reverse-splicing fitness of 0.0113. For C82A A111C A120G C150A, the reverse-splicing fitness was 0.00933. C82A A111C A120G C150G showed a reverse-splicing fitness of 0.00723. C82A A111C A120G C150U gave a reverse-splicing fitness of 0.0107. For C82A A111C A120C C150U U176A, the reverse-splicing fitness was 0.0123. C82A A111C A120C C150U U176G gave a reverse-splicing fitness of 0.0074. With C82A A111C A120C C150U U176C the reverse-splicing fitness was 0.0187.
